Laboratory results: paper PMC3315474

Test system: HSF-3xFLAG (Heat Shock Factor) (Drosophila (species not stated))
Assay: EMSA
Conditions: Kd per HSF trimer, 20 mM HEPES pH 7.9, 100 mM NaCl, 3 mM MgCl2, 1 mM EDTA, 4 mM DTT, 10% glycerol, 0.1% NP-40, 300 ug/ml BSA, 10 ul, 200 amol probe, 30 min, room temperature

HSE chr2L:5009892 (42.6 pM)
Kd (Methods print 42.7 pM): 0.0426 nM

HSE chr3L:13470978 (221 pM)
Kd (HSF up to 1.5 nM monomer): 0.221 nM

HSE chr2R:3529792 (308 pM)
Kd: 0.308 nM

HSE chr3L:4073542 (97.5 pM)
Kd: 0.0975 nM

HSE chrX:3380775 (224 pM)
Kd: 0.224 nM
